This is an account of results in paper PMC8196545 (Cell reports, 2021).

The assay addresses HIV-1 NL4-3 Env on infected cells (HIV-1 group M subtype B, NL4-3 (pNL4-3 …, strain)).

B1: c8517 (antibody, V domains shown)
VH: QVTLKESGPTLLRPADTLTLTCNFSGFSLTTDGVALGWMRQSPGKAPEWLAFLFYDDDKQYNPHLKSRLIISKASSTNQLVLAMTNMGPGDAGTYFCARLNVLVHDVPPRNYGLDVWGRGITITVSS
VL: DIVLTQSPVSLSVTPGQSASMSCKSSETLLHEDGKSYLYWYLQKPGQSPQLLIYEASKRFSGVSDRFTASGTGTHFTLQIDRVEVDDVGVYYCMENLKALTFGGGTRMEIK
Regarding B1, the binding result was “binds”.

B2: c7487 (antibody, V domains shown)
VH: AVTLRQSASEVKKPGTTLKMSCKGSGFSFAESFIYWFRQAPGKRPEYLGLIVPGVSDTVYPDNLKARVAITADTSIETVYLQLSSLTSEDTAVYFCATTTYCSPETCEVAFDVWGQGTTIIVSA
VL: QSALTQPPSASGTPGQRVTIPCSGGSSNVGNNFVSWYQQLPGTAPRLLIYQDNVRPSGVPDRFSGSKSGASASLVISGLRSEDEADYYCCSWEDSLRGPLFGGGTKVTVL
Regarding B2, the binding result is given as “binds”.

B3: c8597 (antibody, V domains shown)
VH: EVKLEASGGGLAQPGQSLRLSCIGSGFKFADYGLSWVRQTPGKGLQWVGFIRGRGSEATKHYAASVAGRFSMSRDDSKNIAYLQMKNLKTYDTGVYYCAREQYSFDFWSGYEDPYYYYMDLWGRGTTVTVSS
VL: DIQMTQSPAALSASIGDRVTISCRASQNIRDWVAWYQQKPGKAPNLLIYRASTLQTAIPSRFSASGFGTDFTLTISSLQPDDFATYFCQHYNSHFTGYSFGQGTKLEIK
Turning to B3, the binding result is recorded as “binds”.

B4: c7484 (antibody, V domains shown)
VH: AVHLTQSGTEVKRPGTSVRISCKGSGFVFRDSFIYWLRQAPGKGPQYLGLIDPGNADTVYPDNFKDRVSITADTSVSTTYLELRRLQFDDTALYFCATTTYCSADSCELALDVWGQGTTVTVSS
VL: QSLLTQPPSASGAPGQSVTISCSGGASNIENNYVVWYQQVPGTAPKLIIYQDNVRPSGVPDRFSGSKSGASGSLLISGLRSEDEADYYCSSWDDSVRGPLFGGGTKVTVL
Turning to B4, the binding result is “binds”.

B5: c9596 (antibody, V domains shown)
VH: EVQLVQSGAEVKKPGTTIKISCKVSGYSFTDSFIHWLKQTPGKGPEWMGLIDPEASDGNKLYAERFQGRLTITADTTTDTAYMELSSLTSDDTAIYYCASQSPSFSDNSRFYGFFDHWGQGTLVNVAS
VL: DIVMTQSPDSLTVSLGERATFNCKSSQSVLDSSDNKNYLSWYQQKPGRPPKLLIYWASIRRSGVPDRFSGSGSGTDFTLTISSLQAEDAAVYFCQQYHTAPFTFGPGTKVDIK
Turning to B5, the binding result is reported as “binds”.

B6: c13155 (antibody, V domains shown)
VH: DVQLLESGGGLVQPGGSLRLSCAGSGYPFSTSDMGWVRQAPGKGLEWVAAIGRSGDGIHYAESVKGRFTISRDNSNNSIYLQMSDLRGDDTGVYYCAKSGWGWCKRGSCSLTVDYWGQGALVTVSS
VL: EIVLTQSPATLSLSPGERATFSCRASQSVGSYLAWYQQKVGQSPRLLIYDSVNRGEGIPGRFSGRGVGTDFTLTIDAVEPEDFAVYYCQQRQIWPLTFGGGTKLEIK
As to B6, the binding result is reported as “binds”.

B7: c7490 (antibody, V domains shown)
VH: QVRLIQSGTLVARPGSSVKVSCQAPGDILANDAVAWVRQAPGQSLEFLGGLPSNFAVGVRAPKFEDRLSIKVDRATKTVHMELRDLTFDDTAIYYCVTCPQRTSVVMSFYFQHWGQGSLVAVSS
VL: DIQMTQSPASVSASVGDRVTISCRASEEISGRLAWYQQRPGQGPKLLISHTSTLQSGVPSRFTGSGSGTDFTLTISSLQPEDSATYYCQQAQYFPPTFGQGTRLDLK
As to B7, the binding result is recorded as “binds”.

B8: c8603 (antibody, V domains shown)
VH: AVQFLQSGAEVKKPGESLKISCQDRGYGFNDYWIAWVRQMPGKGLEWMGLIYPDDSDTRYSPSFQGQVTILADKSINTAYLQWNSLKASDSAIYYCARLMVVDERSENTFDIWGQGTVVTVSS
VL: SSGLTQSPSLSVSPGQTATVTCSGDPLVNHFASWYQQQPGQSPILVIYQDNQRPSGIPERFSGSKTGNTATLTIGETQAADEADYFCQSWDITTAGMIFGGGTKLTVL
As to B8, the binding result is recorded as “binds”.

B9: c11461 (antibody, V domains shown)
VH: AGHLVESGGKLIRPGGSLSLSCVASGFTFRNAHMTWVRQVPGQGLEWIALMKSHADGSHTDYSPSVKNRCAISRDDSTSSLYLHLYNLQLDDTGIYFCVHLSSPDEWGLGTPVTVYS
VL: HIVLTQSPVTLSGSQGDTVALSCRANESLRSHLAWYQQRPGQRPKLLIYEVSRRPPATPPRFSGSGSGTDFTLIIRGLEPEDSAVYYCQQGDFWPFSFGQGTNLEIT
As for B9, the binding result is “binds”.

B10: c5407 (antibody, V domains shown)
VH: QMQLQESGGGRVRPLETLSLACSVSGGSISGDGYYWTWIRQTPGRALEWIGHIHHYGITNYNPSLKSRLTISLDKPKNQFFLTLTSVTVADTALYFCARTFYTFWSGPHDFLDLWGHGTAVIISL
VL: EIVMTQSPVTLSASPGERVALSCRASQSISTKLAWYQQRPGQAPTLLISGASSRASGTPARFSGSGSGADFTLTISTLQPEDFVLYFCQQYKEWPLTFGPGTKLEIK
On to B10, for which the binding result is on record as “binds”.

B11: c754 (antibody, V domains shown)
VH: QVQLVQSGPEVKKPGASARVSCKASGYMFSNNGISWVRQAPGQGLEWMGWISPQNGETLYAHKFQGRVSLTMDTSTNTAFLELTRLRSDDTAVYFCAREAHEDCGEENCFAETWLDTWGQGTQIIVSS
VL: QSVLTQPPSASGTPGQRITMPCSGSNSNIGRRSVCWFQQFPGAAPKVVLYKDSQRPSGVPDRFSGSKSGTSASLTISGLRSDDEADYFCAAWDDSLNVWAFGGGTKLTVL
Take B11: the binding result is listed as “binds”.

B12: c5482 (antibody, V domains shown)
VH: EVQLVESGGGLAQPGGSLRLSCAASGFDFNNYWFYWVRQAPGRGLVWVARVNADGSNTRYVDSVRGRFTISRDSAKKIVYLEMNSVRDEDTAIYYCSRDTFVRVSSTHGYWSGMDVWGHGTTVTVAS
VL: SNELTQPPSVSVSPGQTATITCSGDVLSRQFVYWYQQKPGRAPVLVMYKDNERPSGIPERFSASSSGTRVTLTISGVQAEDEADYYCQSADNNGAHVFGTGTSVIVL
As for B12, the binding result was “binds”.

B13: c5333 (antibody, V domains shown)
VH: EVQLLESGGGLVKPGGSLRLSCEASGYTFDSYGMSWVRQVPGQGLEWVSAINPNGRGTDYADSVKGRFTISRDNSRNILYLNMKNLRADDSAIYYCAKEWQLPFYPSLGPKFDFWGLGTRVTVSS
VL: YIALTQSPLSLAVTPGEPASISCKSSQSLLHSNGFHFLDWYLQKPGKSPQLLIFLGFRRASGVPDRFSASGSGTDFILQISRVEAEDVGVYFCMQGLQTPLTFGGGTKLEIK
Take B13: the binding result was “binds”.

B14: c9433 (antibody, V domains shown)
VH: QVQLVQSAAELRKPGESVKVSCKASGYRFTSYAISWVRQAPGQGLEWMGWMSPHSRTANYAQRFQGRVTMTTDTSTSTASMELRTLRSDDTAIYYCARRVYDWDIKETRLDPWGQGTLVTVSS
VL: not shown
In the case of B14, the binding result is “binds”.

B15: c9517 (antibody, V domains shown)
VH: QVKLQESGPGLVKPSETLSLTCVVSGVSISQSDYFWNWLRQTPGKGLEWLGFISYSGDSFFNPSLGSRLAMSVDTSSNHISLSLKSMTAADAAVYYCARTFCDDVKCYPLFDSWGHGKLVAVSS
VL: DIVMTQSPDSLPLSPGERASINCQSSQSVLYSSDNRNYLAWYQLKPGQPPKLLIYWASVRASGVPDRFSGSGSGTDFTLSISSLQAEDVAVYYCQQYYITPYSFGQGTKVEIR
As to B15, the binding result was “binds”.

B16: c8553 (antibody, V domains shown)
VH: QVQLVQSGAEMKMPGSSVKVSCKTSGGTFGSDSLNWVRQAPGQGLEWMGAIIPVFRTATYAQKFQGRVTITADTSTSTVSMDFYNLKSEDTAVYFCARFLLTSGDDIRDFFDLWGPGTMVTVSS
VL: PSELTQDPAVSVPLGQTVKISCRGDNLGTYYTSWYQQKAGQAPLAVIYGDNKRPSEIPERFSGSSSGNTASLTITGARAEDEADYYCNSRDKSGSHVVFGGGTKLTVL
For B16, the binding result was “binds”.

B17: c2785 (antibody, V domains shown)
VH: QVQLVQSGAEMKKPGSSVKVSCKASGGSFRSFTVNWVRQAPGQGLEWVGRIIAIFGSVDYAQKFQGRVTISADESTSTFYMDIRSLKSEDTAVYYCVRDGLVGGRDFWGQGTQVTVSS
VL: EIVLTQSPGTLSLSPGERATLFCRASQSIKKNYVAWYQQNPGQAPRLLIYGASSRATGTPDRFSGSGSGTDFTLTISRLEPEDFAVYYCQQYGSAQYSFGQGTKLEIK
As for B17, the binding result is “binds”.

B18: c6539 (antibody, V domains shown)
VH: QVRLIQSGTEVARPGSSVRVSCQVPGDILDKNAVAWVRQAPGQVPEFMGGLPSNFAYGVRAQKFEDRLSIIPDRSTNTVDMILRSVTSHDTAIYYCVTCPHRTTVIMSFYFEFWGQGTLVAVSS
VL: DVTVTQSPASVSASVGDRVTISCRASEDLMGRLAWYQQKPGHAPKLLISHTSTLQSGVPSRFTGSGSGADFTLTISSLQPEDSATYYCQQAQRFPPTFGQGTRLEIK
Consider B18, for which the binding result is recorded as “binds”.

B19: c27194 (antibody, V domains shown)
VH: QVHLVQSGDELKKPGSSVKVSCTAAGGTLNKYPITWVRQAPGQGLEWMGTLSPLFGTTDYGQKFQGRLTITTDGSAAHMVLAALTPDDTAVYFCATDKAMGVLPALHFWGQGTLITVSS
VL: EIVLTQSPGTLFLSPGERASLSCRASQNIGGLLAWYQQKPGQSPRLLIYDASNRATGIPARFSGSGSGTDFTLTISSLEPGDIAIYFCQQRSSWPVTFGGGTKVQIK
On to B19, for which the binding result was “binds”.

B20: c9368 (antibody, V domains shown)
VH: QMQLVQSGAELKKPGSSVKVSCKASGGTVSSESVSWVRQAPGHGLEWMGGIIPMFGATNYAQRFQGRVTITADTSTSTAYMELRGLKFEDTAMYYCAREGDPGDYDSGRGLSNAFDIWGQGTMVSVSS
VL: EIVMTQSPGTLSVSPGERATLSCRASQSVSSNLAWYQQKPGQAPRLLIYGASTRATGIPARFIGSGSGTEFTLTISSLQSEDLAIYYCQQYNSWPPQYTFGQGTKLEIK
Regarding B20, the binding result is on record as “binds”.

B21: c8452 (antibody, V domains shown)
VH: EVQLDQSGAEMRKPGTTVKISCKVSGYTTTTDYYVHWVQQAPGKGPQWVGLINVEDGDTIYAEAFQGRVSITADTSKRRVFLDLSGLTSEDSALYFCTTQSLETDTGDYVSAFDSWGQGTLVSVSP
VL: QSVLTQPPSVSAAPGQKVIISCSGRTSSVGTNFVSWYQQVPGAAPKLLIYDNENRPSGISDRFSASTSGTSATLAITALQSGDEADYYCGTWDSGLNPAIFVFGTGTRVSVL
Turning to B21, the binding result is given as “binds”.
